This note sets out measurements from article PMC7458484.

In this series the target is HBV core protein Cp185 (full-length) (hepatitis B virus (Human); compared to …, UniProt Q67855 1-185). Briefly: time-resolved SAXS (stopped flow), SEC capsid assembly; after mixing ~1 RNA per 6.5 Cp185 monomers; RNA in assembly buffer; RNA added to dimers in disassembly buffer immediately triggered capsid formation; Cp185 in 1.5 M GuHCl, 0.5 M LiCl, 50 mM HEPES pH 7.5, 2 mM DTT mixed 1:1 with assembly buffer 250 mM NaCl, 50 mM HEPES pH 7.5, 2 mM DTT; RNA 0.075 mg/mL final.

B1: PS1 RNA oligo (40 nt, RNA40) (structured_RNA)
RNA: GGGUUUGUUUAAAGACUGGGAGGAGUUGGGGGAGGAGCCC
Take B1: the binding result was “binds”.
